# Results from patent publication US20190309025A1.
# Columns and labels:
# [1] = target: BzHuKD VLPs (Zika virus BPH2015 VLPs with E106/107 GL to KD, expressed by plasmid pEBZHu2-3 KD) (Zika virus strain BPH2015); test: ratio of antibody end-point titers on wt and KD VLPs
# [2] = target: MR766KD VLPs (Zika virus MR766 VLPs with E106/107 GL to KD, expressed by plasmid pEZMRprME KD) (Zika virus strain MR766) (UniProt Q32ZE1); test: as above
# [3] = target: BzHuwt VLPs (Zika virus BPH2015 prM and E VLPs expressed by plasmid pEBZHu2-3, pr1-Ala deletion clone) (Zika virus strain BPH2015); test: antibody end-point titration on VLPs (COS-1 supernatant)
# [4] = target: MR766wt VLPs (Zika virus MR766 prM and E virus-like particles expressed by plasmid pEZMRprME1-8) (Zika virus strain MR766) (UniProt Q32ZE1); test: as above
substance,measurement,setting,value
flavivirus group-cross reactive murine monoclonal antibody 4G2,Fold changes (BzHuwt VLPs against BzHuKD VLPs),[1],> 729 fold
same,Fold changes (MR766wt VLPs against MR766KD VLPs),[2],> 2190 fold
same,Antibody end-point titers,[3],729000
same,Antibody end-point titers,[4],> 2.19e+06
